From the domain aggregation screens of Martell et al. (2025)

assay: soluble fraction after stress (log2 fold change); higher = more stays soluble; pooled small domains, quantitative proteomics; settings: stress: 50 degC
Procedure, shortened: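 Pooled custom libraries of small protein domains were measured in a high-throughput format, with quantitative proteomics as the read-out. Each library was stressed at 50°C. Aggregation propensity is given as the base-two logarithm of the fold change in how much of each protein stays soluble after the stress. Higher values mean a larger share of the protein remains in solution.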

Sequence	soluble fraction (log2)
HMEYQTVEKSEAEQIIQELEKAERLALKVYSKNDIITGISVSDGKSYYFSAELVPMLKNIIENPEIKIL	-0.623
HMSKKMTNEEILNFLKKVLIKHGKISGFIIDEDDNGPSSSVVASRFGGLLNAYKLINYTPER	-0.506
HMDEYFNPETVVHYLRELFDTYRENGGNPFEWFHSTFESVNLNPQNYRKDLITTIEKALIEWIEIFEKQ	-0.0143
HMHVSLADQAYKTIRTNILNLTYPPGTQLTEAKLASDLNMSRSPVRTAIKMLQADGLLVSDYYKSMTVK	-0.514
HMITKAIELAEEAEKETVWLGVWEHNHPAQKFYQSLGFVKTDEHDFYMGNERHTDYTMTKQLK	-0.138
HMSVETSDLLPLIEQVLSLNPDKVKEYQNGKKGLLGFFMGQIKQTAGVAIDVGTLKPLLEDALHKDL	-0.493
HMSDKFNALWIILNKLDKKEKVTARSLMEDLEVSERSVYRYITTLQVAGFPVDYDRAVNSYVFSDGYTLK	-4.08
HMGHYGQMTRDLIEKAKTYEEGEEKAALVLTIANLMKRHYLTWNRATVENTLIAEQLKEMSEGALTLPEDV	-0.51
HMLGKSNAERQLDLILGAIERSITGVSRSKLMQAYHLDSRGATAAFETLEQRGLITRSKSGRTELLIPTRV	-1.29
HMEIALNDKQILLFSNKLVHEPSFASKYSKVGESYDDFAIRISENLTIPDKVQEYLPYLEKVGFNI	-0.00852
HMSWEQELIEKANEIIDLYPEKRSALGPLLYLAQERDGYISDESIVEISNLVGITEVQVKSVASFYSMYK	-3.57
HMDIFGREAEVEQILQEVRFGDDPHYRLSIGILPVTGHAGAGKTALVRFIFHHEVARAEFTVRMWVHV	0.106
HMDDFVEIDGKKYEIDMSFDNILRLFDLLKDKSLNDVTKIETGLIMLIDDSLDDYDTEEKADIFVQIF	-0.0316
HMNTKLSYSDLIEKIEAGQVEKVELDAGGSSAIVKLKNDNIEKRVNVPSIDNLMENLQDNMKTGNISVTE	0.42
HMRVGADLTQRERELLALMAQGMSNQEIAKRLEIAVPTVKFHITNILDKLQVGNRTEAVIAALEHKLVP	-0.58
HMGQERAVPDVKGQSFDMAQGNISRAGLKAVVTDSVYDSYARPGTVVEQSPIPLAKIKRGGTVYLTLVA	-0.105
HMRVSNADALIGRRGKANSDIRRGDYGWVAIDGDVWKSKLADDITEDIPMGAIVEVLSRDSIILTVKP	-0.324
HMDGQPLSERQQEILRWVAEGLSNREIGERLNITPNTVRDHLSEVMRRLEVSNRTSAVSTAFHLGLLP	-0.115
HMIEQIELEARVPDELGGQRLDQVAAQMFDDFSRSRLTGWIRDGSLTADGQQLRPRDIVYGGTLLQLKAEQ	0.00374
HMKMATITKRTNPSGAVVYRAQVRVKREGYPPYSESRTFSKKSLATEWAKRREFEIETNPDLLFN	-1.26
HMGNIIITPNPASDFIKIISNSPIIKFGFYDIYGNTINKKFNDNSINISDLPVGMYLINLNERYFKLLK	-0.0951
HMIGKDLLGYEVFSESGDLVGILKDVMWLPHSDVYVITNGGKELLIPVIPEVVKGINHEQGVIVISPM	0.0196
HMAPEVTVHDGSIVVRGHVGGVTVYDESGRQIASVQSRGAVAIPVPAGHTYLYIVKPEGKPAIKVRAAH	0.0927
HMRLREETRKVDKTGLIQVDGRHYRVPDEYSQKDVQILMDDNSIMVYRKGDFVIELDKETSVYMPH	0.214
HMARPLLSPREQDVLALIARGFSYSEVARLQAVTVHTIRTHIRNLYAKLSVHSKTEAVFEATRMGLLP	-1.63

Sequence	soluble fraction (log2)
HMETLKEMDSKGAINASEVNVREGAGTSSSKMYSLSKGASVDVTGIKGDWYRVHTSKGTGYVLAKYVTLVS	-0.0779
HMYSKQRELIMEAVFKNRVHPTAEYVYKLLKKDHPELSLGTVYRNLNYWAENNMLKKINVPGGSDRFDGT	-0.00987
HMAATISPEIQAEAEKAAALGVESIKNFMASLKEKNPEQHALFSDSEKRRLYAIARKADLNTTQQG	-0.103
HMMESLGIRLKRLRKDKGLTQVELGKLSGVTGVTIGYWEKDLNEPGSKALSKLAQALGTTESYLLYGVS	-0.634
HMHELKIEKVAEAPNGAMRLLLSDGSEWVLGVKSWNRLNLSLEKILDVNVLRALEKESQYHLLRTKALEL	-0.395
HMGKHYLLKDDNGTITIYKILEDGTQEVYEKTEISTTYLPQTDNIGIKQGIRVNGDEALNELIENF	-0.0212
HMFSGVQLGQAISEAIKRKNVSQKEVADHFGVKQPSVSGWIKNGRIDKKHLDKLIDYFSDVVTPSHFGIE	0.246
HMPAAKARTWQEATHAFQRDFLLETLRRARFNAADAADQLGLARPALYTTAKRLGLDLVAERQRWEAEAH	-0.173
HMKGMIKVASMSLGADLGLYSRHLKYLGIVHRVVEESGGQSVYIQKLNDLHTAKESLELYLKNELKI	-1.19
HMLMRSPDFLIGWFQNLVAKRETFNDQVQAKNLIEAGKQHIQGEDFDRLLEVNRRLFSLLPQREQE	0.215
HMKNKRERLGIISEILRMQVIGSQEELLDILRAKGYDVTQATLSRDLKVLKVAKTPLSNGAYKYVLPPQ	0.0519
HMSWNIHEAVEYYKGQDAPQNQFALVELLKEVQEHNGGVLTDIAVEEIAALLNTKVTFLNAVIKRYPSLK	-0.287
HMENDPYEILGIARSASDDEIKAKYRALTRENHPDILMAKGVPQEFIDLANEKMAVINAAYDKIEKER	0.292
HMSGRPPTYTAEERSAVIAAALSRPADLGLPFASWTLDRLVAYLGEKGIGMKRSRMSEVLLAEGLKW	-1.25
HMVSKQVTVNGIQYYQYTVQKSEGFYAISTKFGVTQDDIILANPSTKEGLRVGQEILIPIKT	-0.186
HMQISDESSIAKIADEVISEFPSQVSEFRSGKEKVLQFLIGQVMKKTKGKANPQITAKILREKLS	0.119
HMEKKKVPEVAGQDEAAARNVMTNSGFVVDVEQKEDDNVPAGKVITTAPAGGVEVVEGTKIILYVSKGSN	0.113
HMKNQIGFKIKNARRKASISQADLSAKLGISSSYLNLIESGKRNVNVDLLLKVSDVLNIELKDLSK	-0.781
HMQENKVLEGKVLEKKKKKVFVDLSPFGVGVIRGVNYLEAKNELKDIEEGDNIKVRVLEIDNENGFIELAL	0.271
HMLILDTDGRYVIKRGDSLSEILEKIANGSNINLNLLKRAFVTANPKAFKRANPNWMYANAR	-0.113
HMNSKKRQAILESLRSVTDHPTAEMIYNRLKPEYPDLSLGTVYRNLAMFLEEGQVISVGTVDGQERYDAR	-0.306
HMIPEGKWMEDPISEGQIKFIETLIKQAIDSGQDALGAEAKQYLSSGEATKGNASSMIDKLKDAL	0.243
HMTTGTVKWFNDAKGFGFITPDDRSVDVFVHYSNIVGQSGRRTLMEGERVEYEAIEGPKGPQATDVARA	-0.304
HMEREQNIEHGRAIVERELKRLGLSDVYTIADIATALRHDDVDQFLAKIGFGDIQSTQIGGAIAALQQR	-0.0664
HMHTGLAELTDRERDVLRLIATGMTNAAIGSALAYSPSTIRADTVSIYRKLEVRGRAEAAAVAVAAGLTQP	-1.26

Sequence	soluble fraction (log2)
HMSNEKVVKFAQELLVDEERSAISPALISAKIDQVLMFKPAWNEGLDRDAVVNELVRRFSIW	-0.841
HMIDAKTTLQELTQKSGKKPEYRLIKIEGPDHLRRFTVEVFIDGQSMGTGTGHSKKEAEQNAANFALKNLQ	0.0235
HMNEMEWVAKLIDQLPERERMILQLREIEQYEFDQIASLMEIPEGTVRVYLSRIRKKIKKQFIEIQSH	0.0739
HMSRGAIVTGTVIEKNQSGIYVDLGYKSDGIVPIEEFDGEESKYNVGDQIRVYVKKVDDGHGQLML	0.126
HMKNHIEERRKARGMTQQQLASELGVSRQTIISLENGKYNPSILLAHSIARLFGERIEDIFILR	-1.6
HMIVSVPNVRGMGESKAAAALQNRGLLVSIDYESSTSASQGEVIRQSISPGTEVTKGSSITIIIAVSPN	-0.0262
HMNFRESVLAVFENSKQKYLDFDEIAKRLGLTRGFDRQALASMLNELTRNDEIVFTKRNKYTLPEN	0.125
HMPPQPATQNTKAQVMQLAREKELMAGEGRGANVEALEKFANEHGISLRGMTEEQAEQLVKLLMEYTP	-0.258
HMGEQVFSRKDLAINGNDLKAVFGWPPGPKYREALDQLFHWVLEDPARNRRETLLAYLHSLYD	-0.0199
HMPSPTPEQVLKAFTDAAMQKNTVEELKQAFAKAWKMLEGTPEQHKAQDVYNIRRDELEGAA	-0.173
HMDTPMYMAIIEEVRFQIANEILKEGEQLPSIRNLAKTLKVSVITVKRAYKELEEAGYITTIPAKGSKVS	-1.43
HMSDKLTLPVQINGVFRYTIEINPSMQKDEIIDLVKNEERTAKYKQDKEIKNVIVVPGKIVNIII	0.0263
HMDKSFLQSLHLIALGIVKNQMDPWELVNGWVEYYLKNKDKYIDHPNLKAVAVLKMKGLFIDHFRKS	-4.84
HMKDYQGEISVVASGERIDVYLFNYFNLFSRTKIKNHIKNGNILVNENIISPSYILKQNDKIAFNLGAPY	-2.39
HMKPQKRYLFEEVLTFLKHNSEKSFNYKQLGAAMEISNESDRFTLLETLEELKHQGFVVEKEIGKYQAKE	-0.527
HMSSPTAKATGSSVNIRKSASTGAAVLKRVEKGTVLEAVSISDGWVKVKYSGVTGYVSADYVKVSGL	-0.354
HMQPIEIQDRITKAFERSAALEAKNINVEVDGHTVKLTGTVHSLTEKEEARKAAFFAPGVTKVENHLIVDY	0.0426
HMVKGIVPNLIGKTQDEAKQMAEEYGFSIGTVSEKASDKPKGTVIEQSPKAGAKASGVTSINIVVSDGS	-0.0342
HMGSTVRIVVPAADIPAYKDIQPSDLEYREVPKDEISEDAVTDPQEVINKYSTSPLYAGWPINKNIIET	0.0298
HMATAPQIRAIYALGSKLGINQNSREDNLHQLVYSITGKESIKGLTNYEAARVQSELANMERK	0.22
HMSQRITYTEFVQMVKDDKVEKVEVGANQYNITPKSDDKTLVKMTYYTGFIKDENLLDLLNKHKVEIDGYI	0.157
HMAYLTGFHAIEELIRAGKAKGPLLVANAGPRARTIMSLATDNKIRIDRLGEHELNRLAPGNRGIALYVE	0.13
HMFEPLTDREREVLQALADGLSDKEIAERLYISPATVRTHITAILGKLDANSRLQAVVVAARHNLVTL	-0.0803
HMAGTAMRATTAVNVRSGAGTNYSRIGLLQAGEQIQALSSKNGWTQVSYKGRTGYVASAYLASL	-0.309
HMKPGNFILDLLRTYGQKGTSAQNLMSSSRMFNFSENLIRVTLSRLAARGLIENFERGHYRLAE	-0.333
